Measured values: US20030022261A1 (SALK INSTITUTE FOR BIOLOGICAL STUDIES, published 2003)

Target: T1, papain (immobilised, papain affinity chromatography) (UniProt P00784 134-345)
T1 sequence (looked up): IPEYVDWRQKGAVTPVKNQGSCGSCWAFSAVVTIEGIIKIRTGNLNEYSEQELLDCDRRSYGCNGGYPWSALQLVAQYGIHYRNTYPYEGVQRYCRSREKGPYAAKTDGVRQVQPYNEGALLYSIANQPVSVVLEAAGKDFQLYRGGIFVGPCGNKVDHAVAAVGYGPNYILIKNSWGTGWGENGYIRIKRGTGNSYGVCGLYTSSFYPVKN
Test: papain affinity chromatography (retention on immobilised papain during purification)

B1: glycosylated cystatin C (CCg), 21 kDa protein purified from conditioned medium of adult rat hippocampus-derived neural progenitor cells (other, UniProt P14841 21-140, looked up)
chain: GTSRPPPRLLGAPQEADASEEGVQRALDFAVSEYNKGSNDAYHSRAIQVVRARKQLVAGINYYLDVEMGRTTCTKSQTNLTNCPFHDQPHLMRKALCSFQIYSVPWKGTHTLTKSSCKNA
modifications: N-linked carbohydrate moiety of approximately 2.4 kDa (about 15 hexose residues) at the N-glycosylation site (Asn79-X-Thr); carbohydrate moiety of 0.3 kDa at the O-glycosylation site (Ser3)
notes: mature; also called glycosylated form of cystatin C; stem cell glycocystatin C
binding result: binds
